Our source for the EC50 values is patent US20200407456A1 (published 2020).

The assay concerns the target recombinant human CD137-ECD-Fc (APBio Inc.) (human, UniProt Q07011 24-186). The assay can be described thus: ELISA. Background: ELISA stands for enzyme-linked immunosorbent assay.

Sequence of recombinant human CD137-ECD-Fc (APBio Inc.) (Q07011 24-186): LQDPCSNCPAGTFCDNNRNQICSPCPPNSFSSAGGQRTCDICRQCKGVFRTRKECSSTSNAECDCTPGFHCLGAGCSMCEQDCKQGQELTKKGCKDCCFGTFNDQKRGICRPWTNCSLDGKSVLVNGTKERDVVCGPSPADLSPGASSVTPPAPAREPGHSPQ

B1: anti-CD137 antibody clone 31 (antibody, V domains shown)
VH: not shown
VL: QSALTQPASVSGSPGQSITISCTGTSSDVGAYNFVSWYQQRPGKAPELMIYDVSDRPSGVSNRFSGSKSGNTASLTISGLQTEDEADYYCSSYTSSITRYVFGTGTKVTVLG
As a reminder, the EC50 is the midpoint of the concentration-response curve. As for B1, the EC50 is 0.151 nM.

B2: anti-CD137 antibody clone 54 (antibody, V domains shown)
VH: QVQLVQSGAEVKKPGSTVKVSCKASGGTFSSYAISWVRQAPGQGLEWMGRIIPILGIANYAQKFQGRVTITADKSTSTAYMELSSLRSEDTAVYYCASPPYYDSSGYYPLGAFDIWGQGTMVTVSS
VL: SYELTQPPSVSVSPGQTASITCSGDKLGEKYASWYQQKAGQSPILVIYQDSKRPSGIPERFSGSNSGNTATLTISGLQAGDEADYYCQAWDGSSTYVFGTGTKVTVFG
With B2, the EC50 was determined as 0.184 nM.
